Patent US8507655

target: PA83 protective antigen (Bacillus anthracis, UniProt P13423); assay: SPR
Target sequence in this assay (P13423 30-764): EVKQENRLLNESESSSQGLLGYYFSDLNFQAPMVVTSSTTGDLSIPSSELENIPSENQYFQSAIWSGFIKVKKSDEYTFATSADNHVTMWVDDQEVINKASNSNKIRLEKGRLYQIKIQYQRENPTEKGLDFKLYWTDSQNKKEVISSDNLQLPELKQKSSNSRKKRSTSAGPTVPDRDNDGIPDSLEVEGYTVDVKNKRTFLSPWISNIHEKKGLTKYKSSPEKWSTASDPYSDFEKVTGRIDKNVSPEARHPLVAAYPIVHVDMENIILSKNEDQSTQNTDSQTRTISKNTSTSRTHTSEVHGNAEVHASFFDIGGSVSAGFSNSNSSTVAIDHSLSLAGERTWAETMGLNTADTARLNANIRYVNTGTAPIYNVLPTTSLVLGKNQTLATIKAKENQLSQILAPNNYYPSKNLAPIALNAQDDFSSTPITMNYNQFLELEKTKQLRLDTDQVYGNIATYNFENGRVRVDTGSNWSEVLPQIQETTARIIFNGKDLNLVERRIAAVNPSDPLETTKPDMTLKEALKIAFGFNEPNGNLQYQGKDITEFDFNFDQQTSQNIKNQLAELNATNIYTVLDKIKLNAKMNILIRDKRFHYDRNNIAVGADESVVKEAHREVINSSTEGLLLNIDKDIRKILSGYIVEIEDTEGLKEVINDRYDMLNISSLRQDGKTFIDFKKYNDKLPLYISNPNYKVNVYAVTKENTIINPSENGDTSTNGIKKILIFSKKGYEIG

Row | Binder | Kd [nM]
1 | 5.20 (antibody, V domains shown) VH: GPGLLKPSETLSLTCAVSGDSISGGYYWSWIRQSPGKGLEWIGHIYGSTADTRYNPSLKSRVTISKDTRKNQLSLQLRSVTAADTAVYYCARSGYNFWSGEYYGLDSWGQGAVVTVSS VL: TQSPSSLSAYVGDKVTITCHASQGINSWLAWYQQKPGKAPKLLIYKASSLQSGVPSRFSGSGSGTDYTLTISSLQSEDFASYYCLQYDSAPLAFGPGTKLDIK | 12.2
2 | 5.15 (antibody, V domains shown) VH: GPGLLKPSETLSLTCAVSGDSISGGYYWSWIRQSPGKGLEWIGHIYGSTADTRYNPSLKSRVTISKDTSKNQLSLQLRSVTAADTAVYYCARSGYNFWSGEYYGLDSWGQGAVVTVAS VL: TQSPSSLSAYVGDKVTITCHASQGINSWLAWYQQKPGKAPKLLIYKASSLQSGVPSRFSGSGSGTDYTLTISSLQSEDFASYYCLQYDSAPLAFGPGTKLDIK | 3.5

target: PA83 protective antigen (Bacillus anthracis, UniProt P13423); assay: SPR; remark: another data set of the same source
Target sequence in this assay (P13423 30-764): as the sequence (P13423 30-764) above

Row | Binder | Kd [nM]
3 | J24-15 (antibody, V domains shown) VH: QVQLQESGPGLLKPSETLSLTCAVSGDSISGGYYWSWIRQSPGKGLEWIGHIYGSTADTRYNPSLKSRVTISKDTSKNQLSLQLRSVTAADTAVYYCARSGYNFWSGEYYGLDLWGQGAVVTVSS VL: AIQLTQSPSSLSAYVGDKVTITCHASQGINSWLAWYQQKPGKAPKLLIYKARSLQSGVPSRFSGSGSGTDYTLTISSLQSEDFASYYCLQYDSAPLAFGPGTKLDIK | 0.88
4 | v2 (antibody, V domains shown) VH: QVQLQESGPGLLKPSETLSLTCAVSGDSISSGYYWSWIRQSPGKGLEWIGHIYGSTADTKYNPSLRSRVTISKDTSKNQLSLQLRSVTAADTAVYYCARSGYNFWSGEYYGLDSWGQGAVVTVSS VL: AIQLTQSPSSLSAYVGDKVTITCHASQGINSWLAWYQQKPGKAPKLLIYKASSLQSGVPSRFSGSGSGTDYTLTISSLQSEDFASYYCLQYDSAPLAFGPGTKLDIK | 0.66
5 | J24-7 (antibody, V domains shown) VH: QVQLQESGPGLLKPSETLSLTCAVSGDSISGGYYWSWIRQSPGKGLEWIGHIYGSTADTRYNPSLKSRVTISKDTSKNQLSLQLRSVTAADTAVYYCARSGYNFWSGEYYGLDSWGQGAVVTVSS VL: AIQLTQSPSSLSAYVGDKVTITCRASQGINSWLAWYQQKPGKAPKLLIYKASSLQEGVPSRFSGSGSGTDYTLTISSLQSEDFASYYCLQYDSAPLAFGPGTKLDIK | 0.78
6 | 35PA83 Fab (parent) (antibody, V domains shown) VH: GPGLLKPSETLSLTCAVSGDSISGGYYWSWIRQSPGKGLEWIGHIYGSTADTRYNPSLKSRVTISKDTSKNQLSLQLRSVTAADTAVYYCARSGYNFWSGEYYGLDSWGQGAVVTVSS VL: TQSPSSLSAYVGDKVTITCHASQGINSWLAWYQQKPGKAPKLLIYKASSLQSGVPSRFSGSGSGTDYTLTISSLQSEDFASYYCLQYDSAPLAFGPGTKLDIK | 3.4
